Source: patent US20070092518A1 (published 2007)

B1: SEQ ID NO 189 (Fab, V domains shown)
VH: EVQLTESGGGLVQPGGSLRLSCAASQFTFSNHWMNWVRQAPGKGLEWIGEIRSKSIYSATHYAESVKGRFIISRDDNGTSLTLEMNSLKTEDTAEYYCARNYYGSTPDYWGQGTLVTVS
VL: EIVLTQSPDFQSVTPKEKVTITCRASQFVGSSIHWYQQKPDQSPKLLIKYASESMSGVPSRFSGSGSGTDFTFTISSLEAEDAATYYCQQSHSWPFTFGPGTKVDIK
notes: Fab, E. coli lysate
B2: SEQ ID NO 71 (Fab, V domains shown)
VH: EVQLTESGGGLVQPGGSLRLSCRASGSTFSNHWMNWVRQAPGKGLEWIGEIRSKSIYGATSYAESVKGRFIISRDGNKTSLTLEMNSLKTEDTAEYYCARNYYGSTPDYWGQGTLVTVS
VL: EIVLTQSPDFQSVTPKEKVTITCRASQFVGSSIHWYQQKPDQSPKLLIKYASESMSGVPSRFSGSGSGTDFTFTISSLEAEDAATYYCQQSHSWPFTFGPGTKVDIK
notes: Fab, E. coli lysate
B3: TNFα antibody C7 (full-length antibody) (antibody, V domains shown)
VH: EVQLVESGGGLVQPGGSLRLSCAASGFIFSNHWMNWVRQAPGKGLEWIGEIRSKSINSATHYAESVKGRFIISRDDNKNSLYLEMNSLKTEDTAEYYCARNYYGSTYDYWGQGTLVTVS
VL: EIVLTQSPDFQSVTPKEKVTITCRASQFVGSSIHWYQQKPDQSPKLLIKYASESMSGVPSRFSGSGSGTDFTFTISSLEAEDAATYYCQQSHSWPFTFGPGTKVDIK
notes: Variable regions subcloned into a mammalian construct with infliximab constant region (IgG1 kappa)
B4: SEQ ID NO 190 (Fab, V domains shown)
VH: EVQLVESGGGLVQPGGSLRLSCRASGFIFSNHWMNWVRQAPGKGLEWIGEIRSKSINSATSYAESVKGRFIISRDGNKTDLTLEMNSLKTEDTAEYYCARNYYGSTYDYWGQGTLVTVS
VL: EIVLTQSPDFQSVTPKEKVTITCRASQFVGSSIHWYQQKPDQSPKLLIKYASESMSGVPSRFSGSGSGTDFTFTISSLEAEDAATYYCQQSHSWPFTFGPGTKVDIK
notes: Fab, E. coli lysate

Assays:
[1] = target: T1, human tumor necrosis factor-α (rHuTNF-alpha, Biosource) (human, UniProt P01375 77-233); test: solid-phase ELISA, Fab lysate on coated rHuTNF-alpha
T1 construct: Bought recombinant protein coated on ELISA plates; The TNFα of the Biacore assay is not described further; also called TNFα; human TNFα
T1 sequence (P01375 77-233 limits assumed): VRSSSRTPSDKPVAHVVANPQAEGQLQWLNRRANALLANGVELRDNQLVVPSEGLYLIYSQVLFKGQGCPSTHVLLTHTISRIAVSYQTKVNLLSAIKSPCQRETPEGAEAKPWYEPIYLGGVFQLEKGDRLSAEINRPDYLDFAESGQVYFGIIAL
Outline: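 E. coli lysates expressing His-tagged Fab (pTrcHis2A) were incubated 2 h at RT on wells coated with 1 μg/ml rHuTNF-α and blocked with BSA. Bound Fab was detected with biotinylated anti-human kappa plus penta-His conjugates, then streptavidin-POD and TMB. Absorbance was read at 450 nm.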

[2] = target: T1, human tumor necrosis factor-α …; test: Biacore, against infliximab
[3] = target: T1, human tumor necrosis factor-α …; test: Biacore

Binder	binding result [1]	fold higher binding affinity than infliximab [2] [fold]	Kd [3] [nM]
B1	binds	–	–
B2	binds	–	–
B3	–	> 2	0.07
B4	binds	–	–
